The subject of assay [1] is TβRII receptors (TβRII-A, TβRII-B and TβRII-SE) mRNA in hASCs. As to the kind of experiment: RT-PCR / qRT-PCR of TβRII isoform mRNA in transduced hASC. The assay is classed as cell-based, human. Here is the method:
To further assess the agonistic role of the TβRII-SE isoform, hASCs were transduced with Lt-TβRII-SE, Lt-TβRIIA-DN, and Lt.eGFP, at an MOI of 150 as described in the examples. Seventy two hours after transduction the percentage of eGFP expressing cells was measured by flow cytometry (FIG. 11A).
mRNA levels of all three isoforms of Type II TGF-β receptor were also quantified by qRT-PCR (FIG. 13).
Total RNA from different primary cultures and cell lines was isolated using the Absolutely RNA kit (Stratagene, La Jolla, Calif., USA). First-strand cDNA was synthesized by mixing 1 μg of DNA free total RNA, 50 pmol primer p(DT)15 (Roche Diagnostics GmbH, Mannheim, Germany), 0.5 mM deoxyribonucleotide triphosphate, 5 mM dithiothreitol, and 1 U Expand Reverse Transcriptase (Roche Diagnostics GmbH). cDNA corresponding to different isoforms of TβRII receptor was detected by PCR amplification in the presence of Expand High Fidelity polymerase (Roche Diagnostics GmbH), 0.2 mM dNTPS, and 0.5 μM of each primer (forward: 5′[…]3′ (SEQ ID No. 10) and reverse: 5′[…]3′ (SEQ ID No. 11) for 35 cycles using the following PCR conditions: 1 min. at 95° C., 1 min. at 55° C., and 1 min. at […]
(In general: In qPCR the cycle at which signal appears reflects the starting amount.)

The next assay concerns A549 cells. Kind of assay: MTT proliferation assay in transduced A549 cells with TGFβ-1. The assay is classed as cell-based, human. On the procedure:
Additionally, to check whether TβRII-SE acts as a TGFβ-1 agonist, A459 cells either overexpressing TβRII-SE or not (untransduced cells or UT) were incubated in the presence of increasing concentrations of TGFβ-1 (FIG. 10B). […] However, in cells overexpressing TβRII-SE, proliferation started to decrease at a TGFβ-1 concentration of 0.1 nM compared to the same cell line without the addition of TGF-β1.
A549 cells were transduced with lentiviral vectors at a multiplicity of infection (MOI) of 50 in the presence of 8 μg/ml polybrene. Percentage of eGFP positive cells was measured in a FACscalibur (Becton Dikinson) cytometer.
Cells were harvested, counted, and inoculated at the appropriate concentrations into 96-well plates using a multichannel pipette. After 24 hr, TGF-β1 (10 ng/ml and 20 ng/ml; Sigma) was added to the culture wells, and cultures were incubated for 24 hr and 48 hr at 37° C., under an atmosphere of 5% CO2. MTT (3-(4,5-dimethylthiazol-2-yl)-2,5-diphenyltetrazolium bromide) (Sigma) solution at a concentration of 5 mg/ml was added to the media and the cells were further incubated for 4 hr. After replacing 100 μl of supernatant with 100 μl of DMSO, the absorbance of each well was determined at 540 nm with a SEAC (Sirio S) photometer (Italy). The percentage of cell survival was defined as the relative absorbance of treated versus untreated cells.
(Tetrazolium dyes change colour on reduction, which living cells bring about.)

B1: TβRII-SE: 80 amino acid soluble endogenous isoform of human TGF-β receptor II lacking the transmembrane domain, SEQ ID No. 2 (protein, listed as Homo sapiens)
chain: MGRGLLRGLWPLHIVLWTRIASTIPPHVQKSVNNDMIVTDNNGAVKFPQLCKFCDVRFSTCDNQKSCFSKVHYEGKKKAW
In the case of B1, the “TβRII isoform A expression (RT-PCR, 582 bp band)” value in assay [1] (transduced hASC) is listed as “downregulates TβRII isoform A expression”. Besides, the “TβRII-A and B variants mRNA levels (qRT-PCR)” value in assay [1] (transduced hASC vs untransduced) is “decreased dramatically”. Further, the “TGFβ-1 concentration at which proliferation started to decrease” value in the assay on A549 cells (cells overexpressing TβRII-SE, increasing TGFβ-1 concentrations (UT cells: 0.2 nM)) is listed as 0.1 nM. The “cell proliferation (MTT)” value in the assay with A549 cells (transduced A549 cells, 0.4 nM TGFβ-1 vs untreated) was “proliferate significantly less than the same cells not treated with TGFβ-1”.

The record behind these values is patent US11072647B2, “TGF-receptor II isoform, fusion peptide, methods of treatment and methods in vitro” (Onsejo Nacional DE Investigation Cientiticay Tecnica, priority 2013, dated 2021).
